Residue numbers refer to the chain shown, from its start.
T1: human ASGR-1 (human, UniProt P07306 1-291)
T1 construct: Stably expressed on CHO-S cells (CHO-S:huASGR-1); The method text says human or mouse ASGR-1 cells were used; also called huASGR-1; hASGR-1
T1 sequence: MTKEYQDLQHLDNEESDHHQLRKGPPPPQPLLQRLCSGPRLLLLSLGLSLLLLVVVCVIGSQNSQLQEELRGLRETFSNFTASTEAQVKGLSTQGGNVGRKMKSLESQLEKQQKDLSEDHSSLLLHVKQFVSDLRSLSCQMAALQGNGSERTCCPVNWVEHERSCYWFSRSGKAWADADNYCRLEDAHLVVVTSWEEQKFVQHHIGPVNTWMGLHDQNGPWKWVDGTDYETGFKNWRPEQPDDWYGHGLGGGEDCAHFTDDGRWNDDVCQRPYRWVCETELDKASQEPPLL

B1: 25A4 (antibody, V domains shown)
VH: QVLLVQSGAEVKRPGASVKVSCKASGYTFTNYDINWVRQATGQGLEWMGWMYPNSGNTGYAQKFQGRVTMTRNTSISTAYMELSSLRSEDTAVYYCASSSGWYYFDYWGQGTLVTVSS
VL: DIVMTQFPDSLAVSLGERATIKCKSSQSVLYSSHNNNYLAWYQQKPGQPPKLLLYWASTRESGVPDRFSGSGSGTEFTLTISSLEAEDVAVYYCQQYYSTPPTFGQGTKVEIK
B2: 26C4 (antibody, V domains shown)
VH: B1 VH with L3Q, R13K, T41S, Y52N, K63R, S77N
VL: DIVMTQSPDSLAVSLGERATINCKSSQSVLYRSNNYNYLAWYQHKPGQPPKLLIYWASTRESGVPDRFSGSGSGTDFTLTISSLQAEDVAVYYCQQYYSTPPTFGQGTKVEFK
B3: 29H8 (antibody, V domains shown)
VH: B1 VH with L3Q, K12Q, R13K, Y52N, K63R, T78A
VL: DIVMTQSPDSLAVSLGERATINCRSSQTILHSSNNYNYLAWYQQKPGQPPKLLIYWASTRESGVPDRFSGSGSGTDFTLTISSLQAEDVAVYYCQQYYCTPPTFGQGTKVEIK
B4: 54E9 (antibody, V domains shown)
VH: QVQLVQSGAEVKKPGASVKVSCKASGYTFNSYGISWVRLAPGQGLEWMGWISAYNGNTKNAQKLQGRVTMTTDTSTSTAYMELRSLRSDDTAVYYCARHDFWSGYYKGMDVWGQGTTVTVSS
VL: not shown
B5: 56E5 (antibody, V domains shown)
VH: QVQLVQSGAEVKKPGASVKVSCQASGYTFTGYHMHWVRQAPGQGLEWMGWINPNNNATNYAQKFQGRVTMTRDTSISTAYMELRRLRSDDTAVYHCARDGTSSFDYWGQGTLVTVSS
VL: DIQMTQSPSSVSASVGDRVTITCRASQGIRKWLAWYQQKPGKAPKLLIYAASSLQSGVPSRFSGSGSGTDFTLTISSLQPEDFATYYCQQANSFPFTFGPGTKVDIK
B6: 72G9 (antibody, V domains shown)
VH: EVQLVESGGGLVKPGGSLRLSCAASGFTFSSYSMNWVRQAPGKGLEWVSSISGSSSYIYYADSVKGRFTISRDNAKNSLYLQMNSLRAEDTAVYFCARGGSRGFDPWGQGTLVTVSS
VL: B5 VL with V11L, G28S, R30T, K31S, W32Y, A34N, A50T, A91S, N92H
B7: 7E11 (antibody, V domains shown)
VH: QVQLVESGGGVVQPGRSLRLSCAASGFTFSSFGMHWVRQAPGKGLEWVAIIWHDGSNKYYADSVKGRFTISRDNSNNTLYLQMSSLRAEDTAVYYCARDLSMGGMDVWGQGTTVTVSS
VL: DIQMTQSPSSLSASVGDRVTIACRASQNIISYLNWYQQKPGKAPKFLIYTASSLQSGVPSRFSGSGSGTDFTLTISSLQPEDFAIYYCQQTYSTPLTFGGGTKVEIK
B8: 184E7 (antibody, V domains shown)
VH: QVQLVQSGAEVKTPGASVKVSCRASGYTFTSYNMHWVRQVPGQGLEWMGWINPNNGGSNYTQKFQGRVTMTRDTSISTAYMELSRLRSDDTAVYYCARKFGDWGQGTLVTVSS
VL: DIQMTQSPSSRSASIGERVTITCRASQGISNYLAWIQQKPGTAPKSLIYAASSLQSGVSSRFSGSGFGTDFTITISSVQREDFATYYCQQYNGYPFTFGHGTKVDIK
B9: 22G5 (antibody, V domains shown)
VH: EVQLLESGGGLVQPGGSLRLSCAASGFTFSSYAMNWVRQAPGMGLEWVSVISRSGGYTYYADSVKGRFTISRDNSKNTLYLQMNSLRAEDTAVYYCASRLAVAGSEAFDIWGQGTLVTVSS
VL: DIQMTQSPSSLSASVGDRVTITCRASQNISSYLNWYQQKQGKAPKLLIYAASSLQNGVPSRFSGRGSGTDFTLTISSLQPEDFATYYCQQSYRTPLFTFGPGTKVDFK
B10: 12D2 (antibody, V domains shown)
VH: EVQLVESGGGLVKPGGSLRLSCAASGFTFSSYSMNWVRQAPGKGLEWVSSISSSSSYIYYADSVKGRFTISRDNAKNSLYLQMNSLRAEDTAVYYCARLGDYWGQGTLVAVSS
VL: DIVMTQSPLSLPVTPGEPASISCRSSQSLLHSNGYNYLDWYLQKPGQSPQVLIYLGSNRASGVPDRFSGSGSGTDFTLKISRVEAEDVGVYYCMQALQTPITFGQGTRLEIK
B11: 176H4 (antibody, V domains shown)
VH: QVQLVESGGGVVQPGRSLRLSCAASGFTFSSYGMHWVRQAPGKGLEWVAIIWYDGSYKYYADSVKGRFTISRDNSKNTLYLQMSSLRAEDTAVYYCARDAHDFWSGYFAYWGQGALVTVSS
VL: DIVMTQTPLSLSVTPGQPASISCKSSQSLLHGDGKTYLYWYLQKPGQPPQLLIYEVSNRFSGVPDRFSGSGSGTDFTLKISRVEAEDVGIYYCMQSIQIPWTFGQGTRVEIK
B12: 48B12 (antibody, V domains shown)
VH: EVQLLESGGGLVQPGGSLRLSCAASGFTFSSYAMNWVRQAPGKGLEWVSAISGRGGNTFYADSVKGRFTISRDNSKNTLYLQMNSLRAEDTAVYYCAKRETYNWNYEGFDYWGQGTLVTVSS
VL: SYELTQPPSVSVSPGQTARITCSGDALPKKYAYWYQQKSGQAPVLVIYEDSKRPSGIPERFSGSSSGTMATLTISGAQVEDEADYYCNSTDSSGNHVVFGGGTKLTVL
B13: 6G7 (antibody, V domains shown)
VH: QVQLVESGGGVVQPGRSLRLSCAASGFTFSSYGMHWVRQTPGKGLEWVAIISYVGKNKYYADSVKGRFTISRDNSKNTLYLQMNSLRAEDTAVYYCARRGNSYGGYGMDVWGQGTTVTVSS
VL: DIQMTQSPSSRSASVGDRVTITCQASQDISNYLNWCQQKPGKALKLLIYDASTLETGVPSRFSGSGSGTDFTFTISSVQPEDIATYYCQQYDNVPITFGQGTRLEIK
B14: 75G3 (antibody, V domains shown)
VH: QVQLQQWGAGLLKPSETLSLTCAVYGGSLSGSYWSWIRQPPGKGLEWIGEINLSGSTNYNPSLKSRVTISVDTSKSQFSLTLRSVTAADTAVYYCARDYGGLDYWGQGTLVTVSS
VL: EIVLTQSPGTLSLSPGERATLSCRARQNVDSSYLAWYQQKPGQAPRLLIYGASSRATGIPDRFSGSGSGTDFTLTISRLEPEDFAVFYCQQYERSPWTFGQGTKVEIK
B15: 190F8 (antibody, V domains shown)
VH: QVQLVESGGGVVQPGRSLRLSCAASGFTFSTYGMHWVRQAPGKGLEWVAVIWYDGSNKNYADSVKGRFTISRDNSKNTLYLQMNSLRAEDTAVYYCARDQGVGYDGLDVWGQGTTVTVSS
VL: DIQMTQSPSSLSASVGDRVTITCRTSQGIGNYLAWFQQKPGKAPKSLLYKASSLQSGVPSKFSGSGSGTDFTLTISSLQPEDFATYYCQQYMTYPLTFGGGTKVEIK
B16: 191G1 (antibody, V domains shown)
VH: B15 VH with T31S, K58E, N59H, Q100R, D105Y
VL: B15 VL with T25A, G30S, L48I, K50A, Q90H, M92L
B17: 5E5 (antibody, V domains shown)
VH: QVQLVESGGGVVQPGRSLRLSCAASGFTFSNYVMHWVRQAPGKGLEWVAVIWYDGSNKYYADSVKGRFTISRDNSKNTLYLQMNSLRAEDTAVYYCTREVYSSGWYDYGMDVWGQGTTVTVSS
VL: DIQMTQSPSSLSASVGDRVTITCRASQGIRNDLGWYQQKPGKAPKRLIYAASSLQSGVPSRFSGSGSGTEFTLTISSLQPEDFATYYCLQHYSYPRTFGQGTKVEVK
B18: 7F4 (antibody, V domains shown)
VH: QLQLQESGPGLVKPSETLSLTCTVSGGSISRSSYYWGWIRQPPGKGLEWIGNIYYSGATYYNPSLKSRVTISVDTSTNQFSLKLSSVTAADTAVYYCARHSGSWSLDYWGQGTLVTVSS
VL: B17 VL with A25T, S53N, Y92S, S93A, R96L, Q100G, V106I
B19: 7G4 (antibody, V domains shown)
VH: B17 VH with S30N, N84T, T97A, V100K, G104N
VL: B17 VL with K39R, F83S, Q90H, H91Q, V106I

What follows are binders tested against T1, human ASGR-1 (assay: FACS ligand blocking on CHO-S ASGR-1 cells; labelled ligand biotin-GalNAc-PAA (synthetic sugar)).
Protocol: (§1) All ASGR-1 antibodies that bound either human or mouse ASGR-1 stable CHO—S cells were then tested for ligand blocking using both a protein ligand and a synthetic sugar ligand. The method in brief is as follows: first, 20 ul of either CHO-Shuman or mouse ASGR-1 cells were added to wells of a 384 well plate (30 k cells/well) followed by spin and discarding the supernatant. Second, 10 ul of the antibodies (either purified from hybridoma supernatants or made recombinantly) were added in duplicate to the cells in a dilution series (200 nM top concentration, 1:2 serial dilution, 11 point curve) and were incubated for 30 min at 4 C. […] After 30 min incubation at 4C, the plate was spun and washed twice with FACS buffer+1 mM CaCl2 followed by the detection streptavidin-AF647 at 1:1000 dilution. After 30 min at 4C, the cells were spun and washed once and then 60 ul PI added at 1:1000 dilution and the plates delivered to a core flow cytometry facility. The plates were read and processed similarly to the cell binding method except the signal now represents an inhibition curve and typically decreases a function of increasing antibody concentration. IC50 nM potency and % Inhibition were reported. […] Differences in the ability of antibodies to block these two ligands could occur as a result of differences in, for example, avidity stemming from differences in the number and/or orientation of the ASGR binding terminal sugar residues of each ligand, steric hindrance between antibody and each ligand, and/or changes in the conformation of ASGR induced by antibody binding that selectively alters the binding of each ligand.

| % Inhibition [%] | IC50 [nM] | Binder |
| --- | --- | --- |
| 77 | 40 | B1 |
| 83 | 36 | B2 |
| 99 | 17 | B3 |
| 19 | 100 | B4 |
| 99 | 45 | B5 |
| 20 | 24 | B6 |
| 37 | 40 | B7 |
| 99 | 10 | B8 |
| 93 |  | B9 |
| 10 | 2.1 | B10 |
| 79 |  | B11 |
| 94 | 86 | B12 |
| 0 | > 200 | B13 |
| 99 | 115 | B14 |
| 83 | 44 | B15 |
| 78 | 62 | B16 |
| 0 |  | B17 |
| 30 | 0.24 | B18 |
| -30 | 20 | B19 |

These binders were tested against T1, human ASGR-1 (assay: FACS ligand blocking on CHO-S ASGR-1 cells; competitor biotinylated asialofetuin).
Protocol: as §1

| % Inhibition [%] | IC50 [nM] | Binder |
| --- | --- | --- |
| 99 | 11 | B1 |
| 99 | 6.6 | B2 |
| 99 | 7 | B3 |
| 75 | 50 | B4 |
| 99 | 23 | B5 |
| 20 | 53 | B6 |
| 99 | 13 | B7 |
| 99 | 23 | B8 |
| 99 |  | B9 |
| 20 | 10 | B10 |
| 99 |  | B11 |
| 99 | 19 | B12 |
| 99 | 11 | B13 |
| 99 | 29 | B14 |
| 98 | 34 | B15 |
| 99 | 24 | B16 |
| 95 |  | B17 |
| 99 | 2.6 | B18 |
| 96 | 14 | B19 |

— patent publication US20190248902A1 (published 2019)
